Data from patent US20230331815A1 (priority 2020, published 2023).

What was measured:
SARS-CoV-2 pseudovirus = assay type: cell-based
HSPG receptor = assay: hLF cell membrane localization, confocal microscopy of VeroE6/T cells; assay type: cell-based, African green monkey; settings: 2.5 µM hLF, cells chilled at 4° C., anti-hLF staining
Experimental: To visualize cell membrane localization of human lactoferrin (hLF), VeroE6/T cells (0.75×10^5 cells/well) were chilled at 4° C. for 1 hr, incubated with 2.5 µM of hLF. Cells were washed, fixed using 4% PFA (Invitrogen), stained with anti-hLF antibody, and fluorescent image was taken under confocal microscope (FIG. 10, middle row). Cell nuclei were visualized using DAPI (FIG. 10, bottom row). To visualize the cell surface and nuclei at the same time, the confocal images above (i.e., FIG. 10, middle and bottom rows) were merged and are presented in FIG. 10, top row. […] To see the effect of heparin on the binding of hLF to the cell surface (specifically the HSPG receptor), cells were co-incubated with hLF and heparin (H), and the confocal image was taken (FIG. 10, right column).

SARS-CoV pseudovirus [1] = assay type: cell-based
ACE2 receptor = ACE2 receptor (Homo sapiens, UniProt Q9BYF1); assay: Effect on ACE2 receptor enzyme activity; assay type: biochemical; settings: binds away from the enzyme active site
Chain of ACE2 receptor (Q9BYF1 18-805): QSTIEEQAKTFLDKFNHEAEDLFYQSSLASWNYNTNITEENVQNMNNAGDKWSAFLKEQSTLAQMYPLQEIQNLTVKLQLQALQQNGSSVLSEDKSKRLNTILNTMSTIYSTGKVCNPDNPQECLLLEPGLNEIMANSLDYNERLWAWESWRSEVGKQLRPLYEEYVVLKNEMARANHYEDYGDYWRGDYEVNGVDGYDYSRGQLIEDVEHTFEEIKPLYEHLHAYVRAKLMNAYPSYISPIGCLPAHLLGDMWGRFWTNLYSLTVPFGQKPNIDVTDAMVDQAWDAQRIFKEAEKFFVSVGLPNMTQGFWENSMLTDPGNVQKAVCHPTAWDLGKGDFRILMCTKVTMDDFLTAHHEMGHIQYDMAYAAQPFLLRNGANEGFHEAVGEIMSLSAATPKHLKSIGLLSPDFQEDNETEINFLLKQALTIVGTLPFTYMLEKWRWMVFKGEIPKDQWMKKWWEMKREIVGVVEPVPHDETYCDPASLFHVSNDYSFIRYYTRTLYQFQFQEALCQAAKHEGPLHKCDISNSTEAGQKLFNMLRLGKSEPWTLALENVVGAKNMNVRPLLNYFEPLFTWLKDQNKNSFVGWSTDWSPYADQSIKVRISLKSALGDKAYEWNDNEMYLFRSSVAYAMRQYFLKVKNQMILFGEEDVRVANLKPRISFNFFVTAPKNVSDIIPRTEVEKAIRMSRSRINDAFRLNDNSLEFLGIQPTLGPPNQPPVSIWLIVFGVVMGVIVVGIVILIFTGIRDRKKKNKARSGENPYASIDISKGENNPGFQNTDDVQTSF
Excerpt: The results were proven using a small molecule inhibitor. This type of fusion protein enables both lactoferrin to bind to the HSPG on the cell surface and the receptor binding site on the S protein to bind to the ACE2 receptor on the cell surface, thereby tying up both the receptor and co-receptor on the host cell and preventing entry of the virus into the cell. […] Thus, in some embodiments, a recombinant protein as described herein, wherein the receptor binding domain of the SARS-CoV-2 spike (S) protein is fused with lactoferrin, binds to the host cell surface receptors (e.g., ACE2 receptor and HSPG) and prevent binding of the SARS-CoV-2 virus from binding and entering the host cell. This approach is different from other studies in the art, in which recombinant proteins bind to the viral particles themselves to prevent attachment of the virus to the cell. The present disclosure rather discloses a recombinant protein that binds to the host cell and effectively ties up the cell surface receptors such that the virus particles can no longer bind and infect the cell.

SARS-CoV pseudovirus [2] = settings: cited from earlier work
[3] = acidic pH conditions during inflammation; cited from earlier work

Molecule | anti-viral effective concentration range (SARS-CoV-2 pseudovirus; virus not named) | inhibition of SARS-CoV-2 infection in target cells (SARS-CoV-2 pseudovirus; VeroE6 or VeroE6/Tmprss2) | entry of SARS-CoV-2 virus into cells (SARS-CoV-2 pseudovirus; in vitro) | binding to HSPG receptor on the cell membrane (HSPG receptor) | entry of SARS-CoV virus into cells (SARS-CoV pseudovirus [1]) | effect on ACE2 receptor enzyme activity / cellular function (ACE2 receptor) | SARS pseudovirus entry (SARS-CoV pseudovirus [2]) | iron affinity relative to transferrin [3]
Recombinant lactoferrin: recombinant lactoferrin expressed or manufactured in other species, e.g., plant species such as rice (e.g., Ventria Bioscience) (protein, UniProt P02788 20-710, looked up, expressed in rice) Lactotransferrin: GRRRSVQWCAVSQPEATKCFQWQRNMRKVRGPPVSCIKRDSPIQCIQAIAENRADAVTLDGGFIYEAGLAPYKLRPVAAEVYGTERQPRTHYYAVAVVKKGGSFQLNELQGLKSCHTGLRRTAGWNVPIGTLRPFLNWTGPPEPIEAAVARFFSASCVPGADKGQFPNLCRLCAGTGENKCAFSSQEPYFSYSGAFKCLRDGAGDVAFIRESTVFEDLSDEAERDEYELLCPDNTRKPVDKFKDCHLARVPSHAVVARSVNGKEDAIWNLLRQAQEKFGKDKSPKFQLFGSPSGQKDLLFKDSAIGFSRVPPRIDSGLYLGSGYFTAIQNLRKSEEEVAARRARVVWCAVGEQELRKCNQWSGLSEGSVTCSSASTTEDCIALVLKGEADAMSLDGGYVYTAGKCGLVPVLAENYKSQQSSDPDPNCVDRPVEGYLAVAVVRRSDTSLTWNSVKGKKSCHTAVDRTAGWNIPMGLLFNQTGSCKFDEYFSQSCAPGSDPRSNLCALCIGDEQGENKCVPNSNERYYGYTGAFRCLAENAGDVAFVKDVTVLQNTDGNNNEAWAKDLKLADFALLCLDGKRKPVTEARSCHLAMAPNHAVVSRMDKVERLKQVLLHQQAKFGRNGSDCPDKFCLFQSETKNLLFNDNTECLARLHGKTTYEKYLGPQYVAGITNLKKCSTSPLLEACEFLRK | effective in the low µM range | – | – | – | – | – | – | –
hLF: human lactoferrin (LF), 711 amino acids, SEQ ID NO:4; 70-80 kDa basic protein of the transferrin family (protein, listed as Homo sapiens) MKLVFLVLLFLGALGLCLAGRRRRSVQWCAVSQPEATKCFQWQRNMRKVRGPPVSCIKRDSPIQCIQAIAENRADAVTLDGGFIYEAGLAPYKLRPVAAEVYGTERQPRTHYYAVAVVKKGGSFQLNELQGLKSCHTGLRRTAGWNVPIGTLRPFLNWTGPPEPIEAAVARFFSASCVPGADKGQFPNLCRLCAGTGENKCAFSSQEPYFSYSGAFKCLRDGAGDVAFIRESTVFEDLSDEAERDEYELLCPDNTRKPVDKFKDCHLARVPSHAVVARSVNGKEDAIWNLLRQAQEKFGKDKSPKFQLFGSPSGQKDLLFKDSAIGFSRVPPRIDSGLYLGSGYFTAIQNLRKSEEEVAARRARVVWCAVGEQELRKCNQWSGLSEGSVTCSSASTTEDCIALVLKGEADAMSLDEGYVYTAGKCGLVPVLAENYKSQQSSDPDPNCVDRPVEGYLAVAVVRRSDTSLTWNSVKGKKSCHTAVDRTAGWNIPMGLLFNQTGSCKFDEYFSQSCAPGSDPRSNLCALCIGDEQGENKCVPNSNERYYGYTGAFRCLAENAGDVAFVKDVTVLQNTDGNNNEAWAKDLKLADFALLCLDGKRKPVTEARSCHLAMAPNHAVVSRMDKVERLKQVLLHQQAKFGRNGSDCPDKFCLFQSETKNLLFNDNTECLARLHGKTTYEKYLGPQYVAGITNLKKCSTSPLLEACEFLRK | – | efficient inhibitor | prevent entry | binds the HSPG receptor on the cell membrane | prevent entry | does not interfere with ACE2 receptor activity | prevents SARS pseudovirus entry | 30 times higher than transferrin
